± gives the uncertainty stated by the source.

A short description of this data set: amyloid nucleation score (Sup35N fusion, yeast selection) (log enrichment); library NNK1; higher = more nucleation; inactive = no reads after selection. The method, boiled down:
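Sup35N was fused to peptides of 20 random codons and expressed in psi-negative yeast, which were induced with 100 μM copper sulfate for 24 hours and then grown on medium lacking adenine and uracil for 7 days at 30°C. Plasmid inserts from input and output were sequenced on Illumina. The nucleation score is the DiMSum log enrichment of output over input reads, centred on the mode score of non-aggregating sequences. Sequences with under 100 input reads were left out, and random libraries had three technical output replicates.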
As for ARSFETLLTTSRGGKVDWLT, the amyloid nucleation score was -0.272 ± 0.24.
For TSLCMIHYVK, the amyloid nucleation score was -0.069 ± 1.1.
Take VLYIGYYCQKSMEVLVTRSR: the amyloid nucleation score was found to be 1.06 ± 0.69.
In the case of LLVCSKRSGLVSLLLVIYAF, the amyloid nucleation score was -0.522 ± 1.4.
Take SSGYYFVQWTCYLRK: the amyloid nucleation score is -1.27 ± 2.7.
RAGTFTVSTQGPS came in with an amyloid nucleation score of 0.268 ± 0.28.
Consider NADVTCVISGLRKTYCVSDD, for which the amyloid nucleation score was 0.577 ± 0.64.
For the substance LELDRFDNFRYGSAPRCYLP, the amyloid nucleation score entry is “inactive”.
The figure for RLCPTVRVQRLMFFPVCPGP is -0.035 ± 0.42.
The substance TVRNYHFVLV had an amyloid nucleation score of 1.46 ± 0.33.
For SNVVNFDNNEDYLDTCRYLI, the amyloid nucleation score turned out to be 0.734 ± 0.97.
ALILTVIDHVSAHYYVAEDV: the amyloid nucleation score is 5.59 ± 0.081.
Then FIWIGRKRRGGICCDEWKYG, with 0.196 ± 1.6; and EVDFNSSFTWSHMSSKCRMF, with -0.046 ± 0.54; and VHSGTKEKGF, with 1.05 ± 0.54.
Then WNIGYNFVSDSLPPRNYFVE, with -0.198 ± 0.37; and DDTDLVLVMRRSIVERGMRE, with 0.437 ± 0.39.
Regarding FNVKSSMRNPGCIPWHRATY, the amyloid nucleation score is -0.616 ± 1.7.
The entry for RMDWWLEERASSSCDEELLT is “inactive”; for YMKLKRVDMSVYSCCLVFGH it is -0.648 ± 0.73.
Then SDYILCIPWPSGLS, with 0.734 ± 0.97.
The figure for GEQGNPIIESSREFSSVEHN is 4.33 ± 0.078; for SCYDVIVRWDFFLQQFCKMQ it is 1.73 ± 0.12; for IYGAAFVAEGWTPTLSVGDK it is 0.141 ± 0.39.
As to GTVSDGMSVIRVKGMRWSDY, the amyloid nucleation score is 1.13 ± 0.73.
For the substance DFSYSNPDFVFLTQYIAYEK, the amyloid nucleation score amounted to 4.43 ± 0.06.
On to YTTVLAYLLTLDVGSSALSG, for which the amyloid nucleation score is -0.465 ± 1.2.
For the substance WWNIEEM, the amyloid nucleation score was -0.271 ± 0.24.
The figure for RSSCVELGWIGWRARTNR is 0.407 ± 0.57; for VPTSSFGGFVYVGVRVMCS it is -0.487 ± 0.8.
For WGICAVLHLMTIIGLIRVER, the amyloid nucleation score entry was “inactive”.
On to TFIAGAI, for which the amyloid nucleation score is -0.44 ± 0.37.
Regarding ALSSVNFFQLL, the amyloid nucleation score was 4.45 ± 0.12.
Consider WSLNERQNMLHLHRLTASLG, for which the amyloid nucleation score is -0.088 ± 0.88.
In turn, CSTFRVDFFSPCFLL gave an amyloid nucleation score of 6.006 ± 0.05.
Consider QNVRSLVHSYLKGTNSSLVG, for which the amyloid nucleation score was -0.01 ± 0.74.
As for LVIHCDQTHIKVQRDVPRRW, the amyloid nucleation score was found to be 2.98 ± 0.15.
Take NVHSYRSLRLDELVMKSMCE: the amyloid nucleation score is 2.66 ± 0.2.
The substance IFVVGKGDLGCCQI gave an amyloid nucleation score of 0.967 ± 0.35.
Regarding VYEYFRLAGGAIQIAGIPVA, the amyloid nucleation score was -0.002 ± 0.72.
The figure for KYVIMLNLKSEL is 3.4 ± 0.091.
As to SRHFFTAKCQRPRFLWKSDR, the amyloid nucleation score was -0.172 ± 1.2.
Then GQKVMIAHGTQETIHGGCCG, with -0.275 ± 0.49.
LQYWEVYSSCRMRVGYYSAD displayed an amyloid nucleation score of 1.67 ± 0.13.
As to CNFHVCLRLRDIWSRLYLVV, the amyloid nucleation score came out at 7.157 ± 0.07.
EYLSMNRLRERSYYLGNRTF yielded an amyloid nucleation score of 0.077 ± 0.69.
In the case of LFKSQFEFFEVGSVEDEFFR, the amyloid nucleation score entry is “inactive”.
As to QFEFNFTKEDQYYEGFPVDW, the amyloid nucleation score was -0.827 ± 1.7.
In turn, VNPYMMLAQY came in with an amyloid nucleation score of 0.748 ± 0.38.
The figure for TFTLNFCGLQF is 7.124 ± 0.059; for SWCVTCVLA it is 7.204 ± 0.053.
As for LAILMMCLLWTDLAKVLCPH, the amyloid nucleation score was -0.015 ± 0.69.
As to GSWATVWVVKDPEVADCCGL, the amyloid nucleation score was -1.53 ± 1.6.
In turn, WMVSSVIRARGL showed an amyloid nucleation score of 3.23 ± 0.12.
The substance YLCRRT had an amyloid nucleation score of 0.675 ± 0.63.
In the case of FLFLTRRWEFVHMLPVSCEV, the amyloid nucleation score is -0.817 ± 2.4.
Consider QVTRDGSYVGCGGGRRREMC, for which the amyloid nucleation score was -0.359 ± 1.9.
In turn, SLIRIVSS yielded an amyloid nucleation score of 0.372 ± 0.52.
Take LYIFGAY: the amyloid nucleation score was -1.26 ± 0.53.
PVMSRPAARMMGDSCHWSNR: the amyloid nucleation score was -0.585 ± 0.8.
Turning to SDMLYLQLVKLASWFHFNLK, the amyloid nucleation score was -0.199 ± 0.38.
Turning to QDLTEWTYSLAPFMVFHTRP, the amyloid nucleation score was -0.519 ± 1.2.
Take GRIYLVWVDSTCRRVCKTLV: the amyloid nucleation score turned out to be 0.082 ± 0.29.
The figure for VFGHIGIDRGI is 2.74 ± 0.22; for VAITCLKIANGDRGVLQTLC it is 0.264 ± 0.86; for HAAEGIDESRKHSRHLIIVW it is 0.029 ± 0.34.
For the substance GCSIEFFDYGGY, the amyloid nucleation score was -0.183 ± 0.74.
On to YLDGTNSMNAEGNLLNKAPV, for which the amyloid nucleation score worked out at 0.189 ± 0.31.
Then VQIFEKLVQRSSVRQSENLK, with 0.037 ± 0.93; and GRSFYNCPPLRIHCLCIMEV, with 0.557 ± 0.68.
Take CGKPPFGNYWGTWCKIVVTL: the amyloid nucleation score was 0.746 ± 0.62.
SSPTLLSWVKW came in with an amyloid nucleation score of 0.99 ± 0.58.
In turn, CWLTRCCITWVIHRVMANLM yielded an amyloid nucleation score of 0.51 ± 0.84.
YGLIGM had an amyloid nucleation score of 0.24 ± 0.37.
SCATVPCKM came in with an amyloid nucleation score of 0.53 ± 0.63.
In the case of CGVEA, the amyloid nucleation score was -0.542 ± 0.76.
In turn, IYINVP yielded an amyloid nucleation score of 0.764 ± 0.38.
The figure for ISSECQVICYLLHEFSPASV is 1.35 ± 0.25.
LFVTCPHLSTQ returned an amyloid nucleation score of 1.26 ± 0.69.
The figure for ISNDYGATMFNLGCYI is 1.17 ± 0.18; for VLCAGLPWYTELVRFSYWAD it is -0.642 ± 0.56.
Turning to YGDDRWYIRSIIEDCQLGGF, the amyloid nucleation score was -0.716 ± 0.5.
The figure for PIYVAGLGIVI is -0.308 ± 1.1; for SMRRAI it is -0.263 ± 1.4; for LWKNVVWTTGPIIASWVSDL it is 2.04 ± 0.11.
On to WFEVNSACQLSNLGGLTEFR, for which the amyloid nucleation score is -0.417 ± 1.4.
On to GNYSIARGLKNDKWCFFSSY, for which the amyloid nucleation score was -0.234 ± 1.6.
For WQLLKKCP, the amyloid nucleation score was -0.576 ± 0.41.
In the case of GFGWLCYCGPYNLGRFSLSV, the amyloid nucleation score is -0.124 ± 0.66.
Consider SLCTFLGFWGHVFSLRVNRL, for which the amyloid nucleation score is -0.156 ± 1.1.
For ILLRSNIFMYFNMTEMPNSC, the amyloid nucleation score stood at 6.798 ± 0.055.
With KVIRLIFRGY, the amyloid nucleation score stood at 0.871 ± 0.64.
Substance QSFSSSMHHDHDNWDQCCES displayed an amyloid nucleation score of 0.522 ± 0.59.
RFIVM: the amyloid nucleation score was 0.304 ± 0.78.
For the substance DGVEFPFRMIESRFNGCQD, the amyloid nucleation score was -0.613 ± 0.77.
For YVVWQFNWLDTTHHFFELSG, the amyloid nucleation score was -0.022 ± 0.69.
Regarding FMYILYYDMWYACASFR, the amyloid nucleation score entry is “inactive”.
Regarding IELDYYIINIVWPPAGNYRH, the amyloid nucleation score was 6.734 ± 0.062.
PGSKAWFGSLISCLTPWVLR: the amyloid nucleation score was -0.563 ± 0.85.
KFRRLQARFASMMSSTFT: the amyloid nucleation score turned out to be 1.82 ± 0.14.
In the case of RDNKLSVAVVMQSYSVGESG, the amyloid nucleation score was -0.034 ± 0.89.
The figure for LDILMGGGHTEDCTLPGHLS is 0.307 ± 0.36; for PMHSLTASYNDSHFRNRGVM it is “inactive”.
The substance SVRANIA yielded an amyloid nucleation score of 1.34 ± 0.38.
TPLKEHLLNVVRMLGKIDCD yielded an amyloid nucleation score of 0.177 ± 0.42.
VITNHDDE returned an amyloid nucleation score of 0.51 ± 0.47.
The substance WFVNWWEYVL registered an amyloid nucleation score of 0.042 ± 0.9.
For the substance QRLLTYPLLYVTSNVLRFYR, the amyloid nucleation score is -0.001 ± 0.7.
Take IVFLVLRTANRMWNDYHAS: the amyloid nucleation score is -0.075 ± 0.33.
The figure for RSCLQGFGIFAMAIMD is 0.367 ± 0.79; for VISINSVLACVYTIVMR it is -0.1 ± 0.73.
Take GKERCDRMNKTLFLTFSYII: the amyloid nucleation score is -0.281 ± 0.71.
Turning to LIFLLSQSIVVMQWSGRKKQ, the amyloid nucleation score entry is “inactive”.
In the case of CCGVDAFSSRESR, the amyloid nucleation score amounted to 1.55 ± 0.41.
For INVIPDLD, the amyloid nucleation score was -0.572 ± 0.5.
Consider ILCTIFHRTCFLRFRILEHF, for which the amyloid nucleation score entry was “inactive”.
On to DDMVPNWARVTCLSQNWL, for which the amyloid nucleation score is 0.385 ± 0.54.
In turn, SSAVD came in with an amyloid nucleation score of 0.329 ± 1.1.
The figure for VRFFAPPWTWWLC is 0.087 ± 0.44.
Then RYGVGLCAYMFFSCVDFRSG, with 1.65 ± 0.4.
Then NLENLCLMILRVPVSDVMQP, with “inactive”.
Consider DILEIWL, for which the amyloid nucleation score is -0.481 ± 0.4.
On to CLRLVQEFTFMYTVVHGARC, for which the amyloid nucleation score turned out to be 1.13 ± 0.71.
As for NMSINI, the amyloid nucleation score result is “inactive”.
For the substance YFTLFDSRKTVLRSENNTRW, the amyloid nucleation score turned out to be 0.578 ± 0.32.
Then GYSGGKLLVGGTYTRIV, with 0.243 ± 0.43; and IFAMV, with “inactive”.
For WPGFLSRWIRLRLDWSHEV, the amyloid nucleation score is -1.06 ± 1.1.
Consider PHPPAPKK, for which the amyloid nucleation score stood at 0.067 ± 0.59.
For the substance FSPFLIMVSESPFHPIPELR, the amyloid nucleation score was -0.991 ± 2.4.
Then LFYVMWWMAGVGLRRGYWAN, with “inactive”.
Consider TWNNKFRPLVEHGYSAS, for which the amyloid nucleation score was -0.526 ± 0.85.
TFVVFFCWLGS showed an amyloid nucleation score of 5.12 ± 0.093.
As to SWFWHPYFCHRRIGSMGDGV, the amyloid nucleation score was -0.017 ± 0.58.
With RALAVSRMRAYPSLRGEYLN, the amyloid nucleation score was determined as 0.076 ± 1.2.
In turn, MVGDARFYAANSG registered an amyloid nucleation score of 1.14 ± 0.79.
For AGDLGPREQGR, the amyloid nucleation score was determined as 0.171 ± 1.2.
As to FFFRKTSY, the amyloid nucleation score came out at 0.552 ± 0.87.
In turn, VMMRTSSARMGLLLDVTCGN had an amyloid nucleation score of 0.058 ± 0.61.
For the substance NLTDTKLRDNGKNPALADQV, the amyloid nucleation score was -0.226 ± 0.26.

The values above are taken from the supplement of paper PMC12042874.
